To fix the notation:
B1: HDV Ribozyme (parent)
chain: GGCCGGCAUGGUCCCAGCCUCCUCGCUGGCGCCGGCUGGGCAACAUUCCGAGGGGACCGUCCCCUCGGUAAUGGCGAAUGGGACCCA

The values below come from the RNAGym collection of RNA variant scans (doi:10.7554/elife.80360).

Variants of B1 are the subject of the data set. In words: self-cleavage, relative activity (ratio to wild type); higher = more cleavage; co-transcriptional.
For GGCCGGCAUGGUCCCAGCCUCCUCGCUGGCGCCGGCUGGUCAACAUUCCCAGGGGACCGUCCCCUCGGUAAUGGCGAAUGGGACCCA [G40U G50C], the self-cleavage is 0.626.
With GGCCGGCAUCGUCCCAGCCUCCUCGCUGGCGCCGGCUGGGCAACAUUCCGAGGGGACCGUCCCCUCGGUAAUGGCGAAUGGGACCGA [G10C C86G] the figure was 0.538; with GGCCGGCAUGGUCCCAGCCUCCUCGCUGGCGCGCGCUGGGCAACAUUCCGAGGGGACCGUCCCCUCGGUAAUGGCGAAUGGGACCCA [C33G G34C], 0.
With GGCCGGCAUGGUCCCAGCCUCCUCGCUGGCGCCGGCUGGGCACCAUUCCGAGGGGACCGUCCCCUCGGUAAUGGCGAAUGUGACCCA [A43C G81U], the self-cleavage came out at 0.
With GGCCGGCAUGGUCCCAGCCUCCUCGCUGGCGCGGGCUGGGCAACAUUCCGAGGGGACCGUCCCAUCGGUAAUGGCGAAUGGGACCCA [C33G C64A] the figure was 0.213.
Then GGCCGGCAUGGUCCCAGCCUCCUCGCUGGCGCCGGCUGGGCAACAUUCCGAGGGGACCGUCCCCUCGGUCAUGGCGCAUGGGACCCA [A70C A77C], with 0.244; and GGCCGGCAUGGUCCCAGCCUCCUCGCUGGCGCCGGCUGGGCUACAUUCCGAGGGGACAGUCCCCUCGGUAAUGGCGAAUGGGACCCA [A42U C58A], with 0.481; and GGCCGGCAUGGUCCCAGCCUCCUCGCUGGCGCCGGCUGGGCAACAUUCCGAGGGGACCGUACCCUCGGUAAUGGCGAAUGGGACCCG [C61A A87G], with 1.
Then GGCCGGAAUGGUCCCAGCCUCCUCGCUGUCGCCGGCUGGGCAACAUUCCGAGGGGACCGUCCCCUCGGUAAUGGCGAAUGGGACCCA [C7A G29U], with 0.0875; and GGCCGGCAUGGUCCCAGCCUCCUCGCUGGCGCCGACUGGGCAACAUUCCGAGGGGACCGUCCCCUCUGUAAUGGCGAAUGGGACCCA [G35A G67U], with 0.361.
As to GGCCGGCAUGGUCCCAGCCUCCUCGCUGGCGCCGCCUGGGUAACAUUCCGAGGGGACCGUCCCCUCGGUAAUGGCGAAUGGGACCCA [G35C C41U], the self-cleavage amounted to 0.0978.
With GGCCGGCAUGGUCCCAGCCUCUUCGCUGGCGCCGGCUGGGCAACAUUCCGAGGGGACCGUCCCUUCGGUAAUGGCGAAUGGGACCCA [C22U C64U] the figure was 0.892; with GGCCGGCAUGGUCCCAGCCUCCUCGCUGGCGCCGGCUGGGCCACAUUCCGAGGGGACCGUCCCCUCGGUAAUGGCGGAUGGGACCCA [A42C A77G], 0.156; with GGCCGGCAUGGUCCCAGCCUCCCCGCUGGCGCCGGCUGGGCAACAGUCCGAGGGGACCGUCCCCUCGGUAAUGGCGAAUGGGACCCA [U23C U46G], 0.739.
Then GGCCGGCAUGGUCCCAGCUUCCUCGCUGGCGCCGACUGGGCAACAUUCCGAGGGGACCGUCCCCUCGGUAAUGGCGAAUGGGACCCA [C19U G35A], with 0.234; and GGCCGGCAUGGUCCCAGCCUCCUCGCUGGCGCCGGCUGGGCAACAUUGCGAGGGGACCGUCCCCUCGGUAAUGGCGAAUGGGCCCCA [C48G A83C], with 0.573.
With GGCCGGCAUGGUCCCAGCCUGCUCUCUGGCGCCGGCUGGGCAACAUUCCGAGGGGACCGUCCCCUCGGUAAUGGCGAAUGGGACCCA [C21G G25U] the figure was 0; with GGCCGGCAUGGUCCCAGCCUCCUCGCUGGCGCCGGCUGGGCAACAUUCCGAGGGGACCGUCCCCUCGGAAAUGGCGAAUGGGACGCA [U69A C85G], 1.16.
Consider GGCCGGCAUGGUCCCAGCCUCCUCGCUGGCGCCUGCUGGGCAACAUUCCGAGGGGACCGUCCCCUCGGUAAUGGCGAAUGGGACCAA [G34U C86A], for which the self-cleavage was 0.325.
With GGCCGGCAUGGUCCCAGCCACCUCGCUGGCGCCGGCUGGGCAACAUUCCGAGGGGACCGUCCCCUAGGUAAUGGCGAAUGGGACCCA [U20A C66A] the figure was 0; with GGCCGGCAUGGUCCCAGCCUCCUCGCUGACGCCGGCUGGGCAACAUUCCGAGGGGACCGUCCCCUCGGUAAUGGCGAAUGGGACCUA [G29A C86U], 0.0314; with GGCCGGCAUGGUCCCAGCCUCCUCGCUGGCGCCGGCUGGGCAACAUUCCGAGAGGACCGUCCCCUCGGUAAUGGCGAACGGGACCCA [G53A U79C], 0.376.
Turning to GGCCGGUAUGGUCCCAGCCUCCUCGCUGGCGCCGGCUGGGCAACAUUCCGAGGGGACCGUCCCCUCGGUAAUGGCGAAUGGGCCCCA [C7U A83C], the self-cleavage amounted to 0.287.
Turning to GGCCGGCAUGGUCCCAGCCUCCUCGCUGGCGCCAGCUGGGCAACAUUCCGAAGGGACCGUCCCCUCGGUAAUGGCGAAUGGGACCCA [G34A G52A], the self-cleavage turned out to be 0.286.
With GGCCGGCAUGGUCCCAGCCUCCACGCUGGCGCCGGCUGGGCAACAUUCCGAGGGGACCGUCCCCUAGGUAAUGGCGAAUGGGACCCA [U23A C66A] the figure was 0.883; with GGCCGGCAUGGUCCCAGCCUCCUCGCUGGCGCCGGCUGGGCAACAUUCCGAGCGGACCGUCCCCUCUGUAAUGGCGAAUGGGACCCA [G53C G67U], 0.631; with GGCCGGCAUGAUCCCAGCCUCCUCGCUGGCGCCGGCUGCGCAACAUUCCGAGGGGACCGUCCCCUCGGUAAUGGCGAAUGGGACCCA [G11A G39C], 0.
Then GGCCGGCAUGGUCCCAGCCUACUCGCUGGGGCCGGCUGGGCAACAUUCCGAGGGGACCGUCCCCUCGGUAAUGGCGAAUGGGACCCA [C21A C30G], with 0.0652.
With GGCCGGCAUGGUCCCAGCCUCCUCGCUGGCGCCGGCUGGGCAACCUUCCGAGGGGACCGUCCCCUCGGUAAUGGCGAUUGGGACCCA [A45C A78U] the figure was 0.229; with GGCCGGCAUGGUCCCAGCCUCCUCGCUGGUGCCGGCUGGGCAACAUUCCGAGGGGACCGUCCCCUCGGUAAUGGCGAAUGGGAUCCA [C30U C84U], 0.319; with GGCCGGCAUGGUCCCAGUCUCCUCGCUGGCGCCGGCUGGGCAACAUUCCGAGGGGACCGUCCCCUCGGUAAUAGCGAAUGGGACCCA [C18U G73A], 0.161.
As for GGCCGGCAUGGUCCCAGCCUCCUUGCUGGCGCCGGCUGGGCAACAUUCCGAGGGGACCAUCCCCUCGGUAAUGGCGAAUGGGACCCA [C24U G59A], the self-cleavage is 0.623.
Then GGCCGGCAUGGUCCCAGCCUCCUCGCUGGCGCCGGCUGAGCAACAUUCCGAGGGGACCGUCCCAUCGGUAAUGGCGAAUGGGACCCA [G39A C64A], with 0.458.
Then GGCCGGCCUGGUCCCACCCUCCUCGCUGGCGCCGGCUGGGCAACAUUCCGAGGGGACCGUCCCCUCGGUAAUGGCGAAUGGGACCCA [A8C G17C], with 0.
Consider GGCCGGCAUGGUCCCAGCCUCCUCGCUGGCGCCGGCUGGGCAACAUUCCGAGGGGACCGUCCCCUCGAUAAUGUCGAAUGGGACCCA [G68A G74U], for which the self-cleavage turned out to be 0.612.
Then GGCCCGCAUGGUCCCAGCCUCCUCGCUGGCGCCGGCUGGGCAACAUUCCGAGGGGACCGUCCCCUCGGUAAUGGCGAAUGGGACGCA [G5C C85G], with 0.0755; and GGCCGGCAUGGUCCCAGCCUCCUCGCUGGCGCCGGCUGGGCAACAUUCCGAGGGGACUGUCCCCUCGGUCAUGGCGAAUGGGACCCA [C58U A70C], with 0.831.
Then GGCCGGCAUGGUCCCAGUCUCCUCGCUGGCGCCGGCUGGGCAACAUUCCGAGGGGACCGUCCCCUCGGUAGUGGCGAAUGGGACCCA [C18U A71G], with 0.504; and GGCCGGCAAGGUCCCAGCCUCCUCGCUGGCGCCUGCUGGGCAACAUUCCGAGGGGACCGUCCCCUCGGUAAUGGCGAAUGGGACCCA [U9A G34U], with 0.374; and GGCCGGCAUGGUCCCAGCCUCCUCGCUGGCGCCGGCUGGGAAACAUUCCGAGGGGACCGUCCCCUCGGUAAUGGCGAAUAGGACCCA [C41A G80A], with 0.389.
With GGCCGGCAUGGUCCCAGCCUCCUCGCUGGCGCUGGCUGGGCAACAUUCCGAGGGGACCGUCCCCUCGGUAAUGGCGAAUCGGACCCA [C33U G80C] the figure was 0.143; with GGCCGGCAUGGUCCCAGCCUCCUCGCUGGCGCCGGCUGGGCAACAUUCCGAGGGGACCGUCCCCUGGAUAAUGGCGAAUGGGACCCA [C66G G68A], 0.695.
With GGCCGGCAUGGUCCCAGCCUCCUCGCUGGCGCCGGGUGGGCAACAUUCCGAGGGGACCGUCCUCUCGGUAAUGGCGAAUGGGACCCA [C36G C63U], the self-cleavage stood at 0.213.
With GCCCGGCAUGGUCCCAGCCUCCUCGCUGGCGCCGGCUGGGCAACAUUCCAAGGGGACCGUCCCCUCGGUAAUGGCGAAUGGGACCCA [G2C G50A] the figure was 0.138.
Then GGCCGGCAUGGUCCCAGCCUCCUCGCUGGCGCAGGCUGGGCAACAUUCCGAGGGGACCGUCCCCUCGGUAGUGGCGAAUGGGACCCA [C33A A71G], with 0.289; and GGCCGGCAUGGUCCCAGCCUCCUCGCUGGCGCCGGAUGGGCAACAUUCCGAGGGGACCGUCCCCUCGGUAAUGGCGAAGGGGACCCA [C36A U79G], with 0.175; and GGCCGGCAUCGUGCCAGCCUCCUCGCUGGCGCCGGCUGGGCAACAUUCCGAGGGGACCGUCCCCUCGGUAAUGGCGAAUGGGACCCA [G10C C13G], with 0.0723.
In the case of GGCCGGCAUGGUCCCAGCGUCCUCGCCGGCGCCGGCUGGGCAACAUUCCGAGGGGACCGUCCCCUCGGUAAUGGCGAAUGGGACCCA [C19G U27C], the self-cleavage stood at 0.0875.
With GGCCGGCAUGGUCCCAGCCUCCUCGCUGGCGCCGGCUCGGCAACAUUCCGAGGGGACCGUCCCCUCGGUAAUGGCGAAUGGGAACCA [G38C C84A] the figure was 0.18; with GGCCGGCAUGGUCCCAGCCUCCACGCUGGCGCCGGCUGGGCAACAUUCCGAGGGGACCGUCCCCUCGGUAAUGGCGAAUGGGACCUA [U23A C86U], 0.872; with GGCCGGCAUGGUCCCAGCCUCCUCGGUGGCGCCGGCUGGGCAAGAUUCCGAGGGGACCGUCCCCUCGGUAAUGGCGAAUGGGACCCA [C26G C44G], 0.554.
Consider GGCCGGCAUGGUCCCAGCCUCCUCGCUGGCGCCGGCUGGGCAACAUUCCGAGGGGACCGUCCCCUCGGUAAUGGUGAAGGGGACCCA [C75U U79G], for which the self-cleavage stood at 0.0594.
Regarding GGCCGGCAUGGUCCCAGCCUCCCCUCUGGCGCCGGCUGGGCAACAUUCCGAGGGGACCGUCCCCUCGGUAAUGGCGAAUGGGACCCA [U23C G25U], the self-cleavage was 0.158.
With GGCCGGCAUGGUCCCAGCCUCCUCGCUGGCGCCGGCUGGGCAACAUUCCGAGGGGACCGUCCCCUCGGAAAUGGCGAAUGGGACCUA [U69A C86U] the figure was 0.739.
With GGCCGGCAUGGUCCCAGCCUCCUCGCUGGCGCCGGCUAGGCAACAUUCCGAGGGGACCGUCCCCUCGGUAAUGGCGACUGGGACCCA [G38A A78C] the figure was 0.138.
With GGCCGGCAUGGUCCCAGUCUCCUCGCUGGCGCCGGCUGGGCAACAUUCCGAGGGUACCGUCCCCUCGGUAAUGGCGAAUGGGACCCA [C18U G55U] the figure was 0.595; with GGACGGCAUGGUCCCAGCCUCCUCGCUGGCGCCGGCCGGGCAACAUUCCGAGGGGACCGUCCCCUCGGUAAUGGCGAAUGGGACCCA [C3A U37C], 0.661; with GGCCGGCAUGGUCCCAGCCUCCUCGAUGGCGCCGGCUGGGCAACAUUCCGAGGGGCCCGUCCCCUCGGUAAUGGCGAAUGGGACCCA [C26A A56C], 1.06.
Regarding GGCCGGCAUGGUCCCAGCCUCCGCGCUGGCGCCGGCUGGGCAACAUUCCGAGGGGACCGUCCCCUUGGUAAUGGCGAAUGGGACCCA [U23G C66U], the self-cleavage turned out to be 0.65.
Then GGCCGGCAUGGUCCCAGCUUCCUCGCUGGCGCCGGCUGGGCAACAUUCCGAGGGGACCGCCCCCUCGGUAAUGGCGAAUGGGACCCA [C19U U60C], with 0.0906.
Consider GGCCGGCAUGGUCCCAGCCUCCUCGCUGGCGCCGGCUGGGCAACAUUCCGAGGGGACCGCCCCCUCGGUCAUGGCGAAUGGGACCCA [U60C A70C], for which the self-cleavage is 1.04.
Then GGCCGGCAUGGUCCCAGCCUCCUCGCUGGCGCCGGCUGGGCAACAUUCCGAGGGGACCGUCCCCUCGGAAAAGGCGAAUGGGACCCA [U69A U72A], with 0.609; and GGCCGGCAUGGUCCCAGCCUCCUCGCUGGCGCCGGCUGGGCAACAUUCCGGGGGGACCGUCCCCUCGGUUAUGGCGAAUGGGACCCA [A51G A70U], with 1.22; and GGCCGGCAUGGUCCCAGCCUCCUCGCUGGCGCCGGCUGGGCAACAUUUCGUGGGGACCGUCCCCUCGGUAAUGGCGAAUGGGACCCA [C48U A51U], with 1.07.
